Experimental data taken from article doi:10.1101/323055.

Molecular target: TmFtsH_(184,513), double Cys variant of His6-(Δtm)TmFtsH(147–610) (Thermotoga maritima) (UniProt Q9WZ49)

- Kd: 0.4 µM
Substance: TmFtsH_(184,513), double Cys variant of His6-(Δtm)TmFtsH(147–610) (from UniProt Q9WZ49 147-610) (enzyme)
